Measurements reported in paper PMC8339350.
Several values for one entry are separate records, joined by “and”; a condition that tells them apart may be missing. Equal entries are not always repeated. Values belong to the substance of their own block, whether it stands above or below them.

Columns and labels:
AKAP18 (Homo sapiens) = AKAP18 (Homo sapiens) (UniProt Q9P0M2); details: cited from earlier work
GST-AKAP18α (human) = test: BLI; Octet RED96; anti-GST probes loaded with GST protein at 200 nM; room temperature; 50 mM Tris HCl, 200 mM NaCl, 5 mM DTT, 0.1% BSA, pH 8.0; steady-state analysis for KD
[1] = biological target: full-length SPA17 (sperm autoantigenic protein 17), human (human) (UniProt Q15506); test: SEC-MALS; Wyatt system on Superdex 200 Increase 10/300; 20 mM Tris, pH 8, 200 mM NaCl, 5 mM DTT; 0.5 ml/min

RIIα, sequence (P13861 2-404): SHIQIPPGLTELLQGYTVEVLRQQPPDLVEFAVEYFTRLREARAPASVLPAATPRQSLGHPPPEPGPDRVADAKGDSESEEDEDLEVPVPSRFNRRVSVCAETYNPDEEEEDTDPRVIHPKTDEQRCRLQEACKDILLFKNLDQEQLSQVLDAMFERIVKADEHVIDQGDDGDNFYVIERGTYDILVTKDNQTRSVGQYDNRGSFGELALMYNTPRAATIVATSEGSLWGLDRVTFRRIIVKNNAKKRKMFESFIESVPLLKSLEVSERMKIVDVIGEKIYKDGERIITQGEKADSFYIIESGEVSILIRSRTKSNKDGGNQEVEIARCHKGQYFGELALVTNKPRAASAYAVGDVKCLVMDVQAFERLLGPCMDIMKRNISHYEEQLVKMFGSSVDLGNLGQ

Substance: RIIα (from UniProt P13861)
- Kd (AKAP18 (Homo sapiens)): 31 nM

- Kd (GST-AKAP18α (human)): 82 nM
Substance: SPA17 1 to 75-ROPN1L 1 to 75 heterodimer (from UniProt Q15506 1-75; Q96C74 1-75) (complex)

- stoichiometry N [1]: 4 and 2
Substance: full-length SPA17 (sperm autoantigenic protein 17), human (from UniProt Q15506 1-151) (natural protein)
